How the values were obtained:
Assay in all cases: FXase
[1] = biological target: activated FIX-403 (FIXa-403) (human) (UniProt P00740)
[2] = biological target: activated human factor IX (hFIXa) (human) (UniProt P00740)
[3] = biological target: activated ET9 (ET9a; FIX-403 with p.Arg384Leu) (human) (UniProt P00740)
[4] = biological target: activated human factor IX Padua (hFIXa-Padua, p.Arg384Leu) (human) (UniProt P00740)

- Kd [1]: 2.08 nM
- Kd [2]: 7.8 nM
- Kd [3]: 0.26 nM
- Kd [4]: 1.08 nM
Substance: activated factor VIII (FVIIIa), from Advate, recombinant full-length FVIII activated with thrombin (complex)

— publication PMC10922771
